Data reported in patent publication US20090123474A1, “COMBINATION OF ANGIOPOIETIN-2 ANTAGONIST AND OF VEGF-A, KDR AND/OR FLTL ANTAGONIST FOR TREATING CANCER” (ASTRAZENECA AB, priority 2005, published 2009).

Experiments:
Angiopoietin-1 = target: T1, Angiopoietin-1 (Homo sapiens, UniProt Q15389); assay: Biacore (SPR) medium resolution screen of mAb binding to Angiopoietin-1
T1 construct: purchased R&D Systems 293-AN-025/CF
T1 sequence (Q15389 16-498): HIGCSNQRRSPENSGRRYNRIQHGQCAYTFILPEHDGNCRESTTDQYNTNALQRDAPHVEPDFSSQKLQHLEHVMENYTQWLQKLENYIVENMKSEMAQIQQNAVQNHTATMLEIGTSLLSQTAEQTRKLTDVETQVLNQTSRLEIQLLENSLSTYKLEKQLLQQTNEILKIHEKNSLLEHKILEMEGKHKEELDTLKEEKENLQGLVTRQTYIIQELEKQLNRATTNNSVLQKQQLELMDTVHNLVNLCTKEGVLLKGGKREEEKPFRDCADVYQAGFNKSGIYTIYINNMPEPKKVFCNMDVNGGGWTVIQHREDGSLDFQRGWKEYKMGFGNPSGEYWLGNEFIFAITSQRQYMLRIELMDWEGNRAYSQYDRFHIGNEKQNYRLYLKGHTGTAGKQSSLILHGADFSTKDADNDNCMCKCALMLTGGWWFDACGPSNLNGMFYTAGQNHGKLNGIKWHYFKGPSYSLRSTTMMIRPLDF
Description: The cross-reactivity of the antibody to Angiopoietin-1 was further investigated by measuring the affinity of the mAbs to Angiopoietin-1. Instead of immobilizing Angiopoietin-1, as described in ELISA-based counter-binding, the mAbs were immobilized to the CM5 Biacore chips, and Angiopoietin-1 in solution was injected for the determination of the on-rate and off-rate. Six mAbs; 3.3.2, 3.31.2, 5.16.3, 5.86.1, 5.88.3 and 3.19.3 were tested.
Label-free surface plasmon resonance (SPR), or Biacore 2000 instrumentation, was utilized to measure antibody affinity to Angiopoietin-1. For this purpose, a high-density goat α-human antibody surface over a CM5 Biacore chip was prepared using routine amine coupling. For developmental experiments, purified mAbs (clones 3.3.2, 3.31.2, 5.16.3, 5.86.1, 5.88.3 and 3.19.3) were diluted to approximately 2.5-3.5 μg/ml in HBS-P running buffer containing 100 μg/ml BSA. The capture level for each mAb was approximately 150 RU. A 5-minute wash followed each capture cycle to stabilize the mAb baseline. A single Angiopoietin-1 sample diluted to 87.4 nM in the running buffer was injected for one minute over all capture surfaces. […] This experiment was repeated by increasing the mAb capture levels to well over 500-600 RU and injecting 380 nM Angiopoietin-1 for one minute. Angiopoietin-1 was again found to bind mAb 3.19.3.

[1] = tested on: human HT29 colon tumour xenografts; assay: HT29 xenograft efficacy study; type: in vivo; conditions: AZD2171 1.5 mg/kg/day p.o. d 0-27, 3.19.3 10 mg/kg i.p. day 0, 3, 7, 10, 14, 17, 21 and 24
Description: The efficacy of mAb 3.19.3 in combination with AZD2171 was evaluated in human HT29 xenografts. Briefly, 5×10^6 HT29 tumour cells in 0.1 ml of serum free Roswell Park Memorial Institute (RPMI)-1640 medium were injected subcutaneously into the flanks of 60 athymic (nu/nu genotype) mice. When tumours reached a volume of 200 to 400 mm^3 (9-10 days), mice were randomized into groups (8 per group) and treatment started (day 0).
The control group (Group 1) received a daily oral (p.o.) administration of vehicle only for 28 consecutive days (day 0-27). Group 2 treatment consisted of a daily p.o. administration of AZD2171 alone at 1.5 mg/kg/administration for 28 consecutive days (day 0-27). AZD2171 was prepared as a suspension in 1% polysorbate 80 (i.e. a 1% (v/v) solution of polyoxyethylene (20) sorbitan mono-oleate in deionised water). […]
Tumour volumes (mm^3) were assessed at least twice weekly by bilateral Vernier caliper measurement and, taking length to be the longest diameter across the tumor and width the corresponding perpendicular, calculated using the formula (π/6)×(length×width)×√ (length×width). Growth inhibition from the start of treatment was assessed by comparison of the differences in tumor volume between control and treated groups. […] For all mice, the tumours were excised and weights recorded upon termination of the study.

[2] = tested on: human LoVo colon tumour xenografts; type: in vivo; conditions: 3.19.3 10 mg/kg 2×wk i.p., Zactima 50 mg/kg/day p.o.
Description: The anti-tumor activity of monoclonal antibody 3.19.3 was evaluated in the LoVo xenograft model of colorectal cancer. Briefly, LoVo cells were cultured in flasks as routine until the cells reached sub-confluence. Immunodeficient 8 week old male NCr nude mice were used. Cell suspensions containing 3×10^6 cells were injected subcutaneously into the right flank of the mice, and after the tumour volume reached 200 mm^3, the mice were randomized in groups and the treatments were initiated. mAb 3.19.3 10 mg/kg in saline was injected intraperitoneally, twice per week for 2 weeks. Zactima™ was treated peroral daily at doses ranging from 25 to 50 mg/kg in water containing 1% Tween80. The dimensions of each tumor were measured twice per week. The volume of the tumor was calculated as: Volume=Length×(Width)^2×0.5 (cm^3).

B1: mAb 3.19.3: fully human anti-Angiopoietin-2 monoclonal antibody, variable regions SEQ ID NO: 5-8; also binds Angiopoietin-1 (antibody, V domains shown)
VH: QVQLVESGGGVVQPGRSLRLSCAASGFTFTNYGMHWGRQAPGKGLEWVAVISHDGNNKYYVDSVKGRFTISRDNSKNTLYLQMNSLRAEDTAVYYCAREGIDFWSGLNWFDPWGQGTLVTVSSA
VL: EIVLTQSPGTLSLSPGERATLSCRASQSITGSYLAWYQQKPGQAPRLLICGASSWATGIPDRFSGSGSGTDFTLTISRLEPEDFAVYYCQQYSSSPITFGQGTRLEIKR
**Q.** What does the source list for B1?
**A.** binding of Angiopoietin-1 to captured mAb (Angiopoietin-1; 87.4 nM Angiopoietin-1, capture level approximately 150 RU): found to bind; binding of Angiopoietin-1 to captured mAb (Angiopoietin-1; 380 nM Angiopoietin-1, capture levels over 500-600 RU): found to bind; Inhibition of Control Tumour Growth Day 28 [1]: 40%; tumour inhibition [2]: 48%
